Target: T1, 6His-FrzCD (M. xanthus, UniProt P43500 1-417)
T1 construct: FrzCD, cytoplasmic methyl-accepting chemotaxis protein of the Frz system, Myxococcus xanthus; also called cytoplasmic MCP of the Frz system; source: E. coli BL21(DE3); in lysate (co-purification) and purified on NiNTA resin (BLi)
T1 sequence (looked up): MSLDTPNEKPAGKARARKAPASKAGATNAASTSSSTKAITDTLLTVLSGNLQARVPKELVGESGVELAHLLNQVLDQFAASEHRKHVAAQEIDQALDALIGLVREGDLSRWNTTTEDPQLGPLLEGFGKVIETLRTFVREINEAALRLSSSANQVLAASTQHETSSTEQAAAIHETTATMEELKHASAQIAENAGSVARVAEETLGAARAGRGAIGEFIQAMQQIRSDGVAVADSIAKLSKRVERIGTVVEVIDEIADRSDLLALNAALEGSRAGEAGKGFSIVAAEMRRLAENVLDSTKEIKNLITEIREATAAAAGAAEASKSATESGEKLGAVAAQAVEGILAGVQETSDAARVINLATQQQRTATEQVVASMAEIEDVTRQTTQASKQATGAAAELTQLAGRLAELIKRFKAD
Test: BLI; BLItz, 25°C; 6His-tagged ligand immobilised on Ni-NTA biosensors at 4 μM; GST-FrzB as analyte at 0.2 to 20 μM; Tris HCl 50 mM pH8, NaCl 300 mM; global 1:1 fit; double reference subtraction
Conditions: both partners purified

Kd: 700 nM
B1: GST-FrzB (natural protein, M. xanthus, UniProt P43499 1-112, looked up)
chain: MDLLFFDIGATLYGTDASQVLRIDRALPEDLTLAELGLPHRGNRAIVFDTPEGEAHLKVDAVHGVRSIPVNSLRRMPPTAGAAAYAVGVCLEEARTVLLIDLVETARTQGRH
notes: FrzB, CheW-like protein of the Frz chemosensory system, Myxococcus xanthus, Uniprot P43499; also called divergent CheW; source: E. coli BL21(DE3)

From article PMC6952110, “A divergent CheW confers plasticity to nucleoid-associated chemosensory arrays” (PLoS Genetics, 2019)
